According to article doi:10.1101/823146 (bioRxiv, 2019):

Legend:
[1] = molecular target: 6xHis-tagged RcsF (E. coli) (UniProt P69411); assay: BLI
[2] = molecular target: Untagged BamA (biolayer interferometry) (E. coli), P0A940; assay: BLI; conditions: remark: other sources report otherwise
[3] = molecular target: BamABCDE holocomplex (BAM) (E. coli, UniProt P0A940;P77774;P0A903;P0AC02;P0A937); assay: native gel or EMSA
BamABDE complex = BamABDE complex (E. coli, UniProt P0A940;P77774;P0AC02;P0A937); assay: native gel or EMSA
BamACDE complex = BamACDE complex (E. coli, UniProt P0A940;P0A903;P0AC02;P0A937); assay: native gel or EMSA
BamACDE complex, sequence (P0A903 25-344, chain 2 of 3): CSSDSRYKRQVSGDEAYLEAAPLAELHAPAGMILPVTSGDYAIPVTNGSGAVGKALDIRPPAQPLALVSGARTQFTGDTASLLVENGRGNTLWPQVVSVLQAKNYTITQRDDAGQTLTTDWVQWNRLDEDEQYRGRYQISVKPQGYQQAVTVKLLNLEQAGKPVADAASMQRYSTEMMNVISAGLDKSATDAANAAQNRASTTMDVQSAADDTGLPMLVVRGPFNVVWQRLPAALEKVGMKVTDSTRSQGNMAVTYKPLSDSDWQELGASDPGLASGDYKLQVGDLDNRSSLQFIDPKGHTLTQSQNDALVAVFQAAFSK
BamACDE complex, sequence (P0AC02 20-245, chain 3 of 3): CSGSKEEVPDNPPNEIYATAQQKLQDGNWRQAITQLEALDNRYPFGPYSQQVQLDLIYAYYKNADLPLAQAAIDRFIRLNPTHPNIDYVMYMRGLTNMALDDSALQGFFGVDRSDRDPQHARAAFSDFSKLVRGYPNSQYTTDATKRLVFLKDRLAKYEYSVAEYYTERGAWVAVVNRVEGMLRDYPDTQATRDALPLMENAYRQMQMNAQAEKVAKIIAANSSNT
BamACDE complex, sequence (P0A937 20-113, chain 4 of 3): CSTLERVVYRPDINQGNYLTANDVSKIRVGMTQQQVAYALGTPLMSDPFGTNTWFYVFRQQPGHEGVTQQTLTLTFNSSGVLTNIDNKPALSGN

BamABCDE holocomplex (BAM), sequence (P77774 20-392, chain 2 of 4): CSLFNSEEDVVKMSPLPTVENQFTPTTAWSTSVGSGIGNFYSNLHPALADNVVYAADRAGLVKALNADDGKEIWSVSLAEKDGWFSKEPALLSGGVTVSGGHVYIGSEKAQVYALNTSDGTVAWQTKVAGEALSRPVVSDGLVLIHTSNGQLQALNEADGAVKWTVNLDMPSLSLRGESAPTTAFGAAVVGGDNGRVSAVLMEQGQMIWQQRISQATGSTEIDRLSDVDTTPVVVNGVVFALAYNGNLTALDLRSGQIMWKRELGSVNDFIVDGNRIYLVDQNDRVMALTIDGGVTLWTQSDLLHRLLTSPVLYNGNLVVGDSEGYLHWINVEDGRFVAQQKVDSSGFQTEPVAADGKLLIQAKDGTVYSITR
BamABCDE holocomplex (BAM), sequence (P0A903 25-344, chain 3 of 4): as the sequence (P0A903 25-344, chain 2 of 3) above
BamABCDE holocomplex (BAM), sequence (P0AC02 20-245, chain 4 of 4): as the sequence (P0AC02 20-245, chain 3 of 3) above
BamABCDE holocomplex (BAM), sequence (P0A937 20-113, chain 5 of 4): as the sequence (P0A937 20-113, chain 4 of 3) above
BamABDE complex, sequence (P77774 20-392, chain 2 of 3): as the sequence (P77774 20-392, chain 2 of 4) above
BamABDE complex, sequence (P0AC02 20-245, chain 3 of 3): as the sequence (P0AC02 20-245, chain 3 of 3) above
BamABDE complex, sequence (P0A937 20-113, chain 4 of 3): as the sequence (P0A937 20-113, chain 4 of 3) above

Question: Which Kd [1] does the source give for “Untagged BamA (biolayer interferometry) (from UniProt P0A940 21-810) (natural protein; other documents disagree on this pair)” here?
Answer: 420 nM

B1: 6xHis-tagged RcsF, P69411 16-134 (natural protein)
chain: CSMLSRSPVEPVQSTAPQPKAEPAKPKAPRATPVRIYTNAEELVGKPFRDLGEVSGDSCQASNQDSPPSIPTARKRMQINASKMKANAVLLHSCEVTSGTPGCYRQAVCIGSALNITAK
modifications: here or on the partner: biotin (EZ-Link NHS-PEG4-biotin) where BamA was immobilised on streptavidin tips
Question: Which Kd [2] does the source give for B1 here?
Answer: 350 nM

B2: RcsF (overexpressed from pSC216) (natural protein)
chain: CSMLSRSPVEPVQSTAPQPKAEPAKPKAPRATPVRIYTNAEELVGKPFRDLGEVSGDSCQASNQDSPPSIPTARKRMQINASKMKANAVLLHSCEVTSGTPGCYRQAVCIGSALNITAK
modifications: lipid anchor (outer membrane lipoprotein)
Question: Does B2 bind [3]?
Answer: binds

Question: Does B2 bind (BamABDE complex)?
Answer: binds

Question: Does B2 bind (BamACDE complex)?
Answer: binds
